Data on eight molecules can be found in US20210054355A1 (NEW YORK UNIVERSITY, published 2021).

Numbering of substitutions follows the chain as printed. In names and notes the source's numbering stands.

First the molecules themselves.
T1: FGF23 C-terminal tail peptide (FGF23^C-tail) (human)
T1 construct: The peptide may have been shorter, e.g. S180 to S205
T1 peptide: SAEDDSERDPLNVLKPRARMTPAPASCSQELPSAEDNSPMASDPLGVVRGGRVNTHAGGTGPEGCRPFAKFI

B1: FGFR1c^ecto/ΔHBS (FGFR1c^ecto carrying K160Q/K163Q) (receptor)
chain: DNTKPNRMPVAPYWTSPEQMEQKLHAVPAAKTVKFKCPSSGTPNPTLRWLKNGKEFKPDHRIGGYKVRYATWSIIMDSVVPSDKGNYTCIVENEYGSINHTYQLDVVERSPHRPILQAGLPANKTVALGSNVEFMCKVYSDPQPHIQWLKHIEVNGSKIGPDNLPYVQILKTAGVNTTDKEMEVLHLRNVSFEDAGEYTCLAGNSIGLSHHSAWLTVLEALEER
notes: also called FGFR1c^ΔHBS
B2: FGFR1c^ecto/ΔSLBS′ (FGFR1c^ecto carrying V221D) (receptor)
chain: B1 chain with Q19K, Q22K, V80D
notes: also called FGFR1c^ΔSLBS′
B3: FGFR1c^ecto/ΔSLBS (FGFR1c^ecto carrying I203E) (receptor)
chain: B1 chain with Q19K, Q22K, I62E
notes: also called FGFR1c^ΔSLBS
B4: FGFR1c^ecto/ΔHBS′ (FGFR1c^ecto carrying K207Q/R209Q) (receptor)
chain: B1 chain with Q19K, Q22K, K66Q, R68Q
notes: also called FGFR1c^ΔHBS′
B5: FGFR1c^ecto/ΔRRBS (FGFR1c^ecto carrying A171D) (receptor)
chain: B1 chain with Q19K, Q22K, A30D
notes: also called FGFR1^ΔRRBS
B6: FGF23^ΔHBS (FGF23^WT carrying R140A/R143A) (ligand)
chain: YPNASPLLGSSWGGLIHLYTATARNSYHLQIHKNGHVDGAPHQTIYSALMIRSEDAGFVVITGVMSRRYLCMDFRGNIFGSHYFDPENCRFQHQTLENGYDVYHSPQYHFLVSLGAAKAAFLPGMNPPPYSQFLSRRNEIPLIHFNTPIPRQHTQSAEDDSERDPLNVLKPRARMTPAPAS
B7: αKlotho^ecto/ΔRBA (soluble αKlotho ectodomain lacking L544 to T565 of the KL2 β1α1 loop) (receptor)
chain: EPGDGAQTWARVSRPPAPEAAGLFQGTFPDGFLWAVGSAAYQTEGGWQQHGKGASIWDTFTHHPLAPPGDSRNASLPLGAPSPLQPATGDVASDSYNNVFRDTEALRELGVTHYRFSISWARVLPNGSAGVPNREGLRYYRRLLERLRELGVQPVVTLYHWDLPQRLQDAYGGWANRALADHFRDYAELCFRHFGGQVKYWITIDNPYVVAWHGYATGRLAPGIRGSPRLGYLVAHNLLLAHAKVWHLYNTSFRPTQGGQVSIALSSHWINPRRMTDHSIKECQKSLDFVLGWFAKPVFIDGDYPESMKNNLSSILPDFTESEKKFIKGTADFFALCFGPTLSFQLLDPHMKFRQLESPNLRQLLSWIDLEFNHPQIFIVENGWFVSGTTKRDDAKYMYYLKKFIMETLKAIKLDGVDVIGYTAWSLMDGFEWHRGYSIRRGLFYVDFLSQDKMLLPKSSALFYQKLIEKNGFPPLPENQPLEGTFPCDFAWGVVDNYIQVDTTLSQFTDKKRKSYCVDFAAIQPQIALLQEMHVTHFRFSLDWALILPLGNQSQVNHTILQYYRCMASELVRVNITPVVALWQPMAPNQGLPRLLARQGAWENPYTALAFAEYARLCFQELGHHVKLWITMNEPYTRNMTYSAGHNLLKAHALAWHVYNEKFRHAQNGKISIALQADWIEPACPFSQKDKEVAERVLEFDIGWLAEPIFGSGDYPWVMRDWLNQRNNFLLPYFTEDEKKLIQGTFDFLALSHYTTILVDSEKEDPIKYNDYLEVQEMTDITWLNSPSQVAVVPWGLRKVLNWLKFKYGDLPMYIISNGIDDGLHAEDDQLRVYYMQNYINEALKAHILDGINLCGYFAYSFNDRTAPRFGLYRYAADQFEPKASMKHYRKIIDSNGFPGPETLERFCPEEFTVCTECSFFHTRKS
notes: the mature protein is E34 to S959; Expressed and purified like the wild type (pEF1α/myc-His A); also called α-Klotho^ecto/deltaRBA; αKlotho^ecto/ΔRBA mutant
B8: Soluble human α-Klotho ectodomain (αKlotho^ecto) (receptor)
chain: EPGDGAQTWARVSRPPAPEAAGLFQGTFPDGFLWAVGSAAYQTEGGWQQHGKGASIWDTFTHHPLAPPGDSRNASLPLGAPSPLQPATGDVASDSYNNVFRDTEALRELGVTHYRFSISWARVLPNGSAGVPNREGLRYYRRLLERLRELGVQPVVTLYHWDLPQRLQDAYGGWANRALADHFRDYAELCFRHFGGQVKYWITIDNPYVVAWHGYATGRLAPGIRGSPRLGYLVAHNLLLAHAKVWHLYNTSFRPTQGGQVSIALSSHWINPRRMTDHSIKECQKSLDFVLGWFAKPVFIDGDYPESMKNNLSSILPDFTESEKKFIKGTADFFALCFGPTLSFQLLDPHMKFRQLESPNLRQLLSWIDLEFNHPQIFIVENGWFVSGTTKRDDAKYMYYLKKFIMETLKAIKLDGVDVIGYTAWSLMDGFEWHRGYSIRRGLFYVDFLSQDKMLLPKSSALFYQKLIEKNGFPPLPENQPLEGTFPCDFAWGVVDNYIQVDTTLSQFTDLNVYLWDVHHSKRLIKVDGVVTKKRKSYCVDFAAIQPQIALLQEMHVTHFRFSLDWALILPLGNQSQVNHTILQYYRCMASELVRVNITPVVALWQPMAPNQGLPRLLARQGAWENPYTALAFAEYARLCFQELGHHVKLWITMNEPYTRNMTYSAGHNLLKAHALAWHVYNEKFRHAQNGKISIALQADWIEPACPFSQKDKEVAERVLEFDIGWLAEPIFGSGDYPWVMRDWLNQRNNFLLPYFTEDEKKLIQGTFDFLALSHYTTILVDSEKEDPIKYNDYLEVQEMTDITWLNSPSQVAVVPWGLRKVLNWLKFKYGDLPMYIISNGIDDGLHAEDDQLRVYYMQNYINEALKAHILDGINLCGYFAYSFNDRTAPRFGLYRYAADQFEPKASMKHYRKIIDSNGFPGPETLERFCPEEFTVCTECSFFHTRKS
notes: also called wild-type αKlotho^ecto; soluble αKlotho

For series [1], the target named is B8. Kind of series: SEC-MALS, 1:1:1 mixture with FGF23 and αKlotho^ecto. On the procedure: (§1) A Superdex 200 10/300 GL column (GE Healthcare, USA) was placed in-line between the HPLC pump (Waters 1525) and the HPLC UV (Waters 2998 Photodiode Array), laser light scattering, and refractive index detectors. Light scattering and refractive index detectors were calibrated following the manufacturer's guidelines. The refractive index increment (dn/dc) in which n is the refractive index and c is the concentration of the mixture of DDM and CHS in 20 mM Tris-HCl pH 8.0 buffer containing 300 mM NaCl, was determined offline using an Optilab T-rEX refractive index detector. Monomeric bovine serum albumin (#23210, Thermo Scientific, USA) was used as part of routine data quality control.
60 ml or more of 25 mM HEPES pH 7.5 buffer containing 150 mM NaCl were passed through the system at a flow rate of 0.5 mL/min to equilibrate the Superdex 200 10/300 GL column and establish stable baselines for light scattering and refractive index detectors. Purified αKlotho^ecto, FGER1c^ecto (wild type or mutant), and FGF23 (wild type or mutant) proteins were mixed at a molar ratio of 1:1:1 and concentrated to 12.5 μM. 50 μl of protein samples with a molar equivalent of a heparin hexasaccharide (#H006, Iduron, Manchester, U.K.) were injected onto the gel filtration column, and the column eluent was continuously monitored for 280 nm absorbance, laser light scattering, and refractive index. In a separate set of experiments, 50 μl of 1:1:1 FGF23-FGFR1c^ecto-αKlotho^ecto ternary complex at 12.5 μM concentration was mixed with heparin hexasaccharide at molar ratios of 1:0.25, 1:0.5, 1:1, or 1:2, and the mixtures were injected onto the gel filtration column. 50 μl of ternary complex without added heparin hexasaccharide were run as a control. In yet another set of experiments, αKlotho^ecto (wild type or mutant) and FGER1c^ecto were mixed at a molar ratio of 1:1, and 50 μl of concentrated protein mixtures were injected onto the gel filtration column. 50 μl of concentrated αKlotho^ecto (wild type or mutant) alone were run as a control in these experiments. The analyses were performed at ambient temperature. Data were collected every second at a flow rate of 0.5 ml/min.
(SEC sorts molecules by how far they enter the pores of the column.)

Series [2] deals with B8. Kind of series: SEC-MALS, 1:1:1 mixture with FGFR1c^ecto and αKlotho^ecto. Here is the method:
as §1
(§2) 60 ml or more of 25 mM HEPES pH 7.5 buffer containing 150 mM NaCl were passed through the system at a flow rate of 0.5 mL/min to equilibrate the Superdex 200 10/300 GL column and establish stable baselines for light scattering and refractive index detectors. Purified αKlotho^ecto, FGER1c^ecto (wild type or mutant), and FGF23 (wild type or mutant) proteins were mixed at a molar ratio of 1:1:1 and concentrated to 12.5 μM. 50 μl of protein samples with a molar equivalent of a heparin hexasaccharide (#H006, Iduron, Manchester, U.K.) were injected onto the gel filtration column, and the column eluent was continuously monitored for 280 nm absorbance, laser light scattering, and refractive index. […]

The target in series [3] is B4. Briefly: SEC-MALS of the 1:1:1 mixture with αKlotho^ecto and heparin hexasaccharide; the two proteins are seen together in the ternary complex [panel B]. Here is the method:
as §1, §2

Series [4] addresses B1. The description is as above. Here is the method:
as §1, §2

Series [5] has as its target T1, FGF23 C-terminal tail peptide …. Briefly: fluorescence dye-based thermal shift assay (SYPRO Orange), 1:1 mixture; over the peak of αKlotho^ecto/ΔRBA alone the sheet prints 51 [right]. Here is the method: (§3) Fluorescence Dye-Based Thermal Shift Assay: SYPRO Orange dye (#S6650, ThermoFisher Scientific, USA) was used as the fluorescent probe. 15 μl of 20 μM solutions of protein samples (wild-type and mutated forms of FGF23; αKlotho^ecto or αKlotho^{ecto/ΔRBA} alone; 1:1 mixtures of αKlotho^ecto or αKlotho^{ecto/ΔRBA} with FGF23 C-terminal tail peptide) were mixed with 5 μl of working dye solution (1:25 dilution) in duplicate in PCR strips. A temperature gradient from 4° C. to 100° C. at 1° C./minute increment was carried out with a CFX96 Touch™ Real-Time PCR Detection System (Bio-Rad, USA). Fluorescence was recorded as a function of temperature in real time. The melting temperature (Tm) was calculated with StepOne software v2.2 as the maximum of the derivative of the resulting SYPRO Orange fluorescence curves.

Series [6] has the same target. Kind of series: fluorescence dye-based thermal shift assay (SYPRO Orange), 1:1 mixture; over the peak of αKlotho^ecto alone the sheet prints 48 [left]. On the procedure: as §3

B1: in series [1], the binding result is “binds”.

Take B2: in series [1], the binding result is on record as “binds”.

For B3, in series [1], the binding result was “binds”.

For the molecule B4, in series [1], the binding result is recorded as “binds”.

As for B5, the binding result in series [1] is “binds”.

For B6, the binding result in series [2], in series [3] and in series [4] was “binds” each time.

As to B7, in series [5], the “melting temperature (peak of derivative fluorescence) of the mixture” value worked out at 57.5 °C.

In the case of B8, the “melting temperature (peak of derivative fluorescence) of the mixture” value in series [6] amounted to 54 °C.
